Measurements reported in the supplement of paper PMC9170038.

System: MS2 coat protein
Assay: apparent KD of MS2 coat protein; designed switch direction (-1 OFF switch, 1 ON switch): -1; higher = weaker reporter binding
Summary of the method: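 For each design, the apparent KD is the median over clusters of curves fitted to normalised cluster fluorescence. Clusters held RNA switches with common flanks, transcribed on Illumina chips by stalled E. coli RNA polymerase. These were titrated with SNAP-549-labelled MS2 coat protein, doubling from 0.7 or 1.5 nM to 3 µM, without input, with 200 uM small-molecule ligand, or with an oligonucleotide input.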

[1] = input ligand: microRNA oligo, concentration not stated
[2] = Eterna round: R95, input ligand: FMN 200 uM
[3] = Eterna round: R95, input ligand: microRNA oligo, concentration not stated
[4] = Eterna round: R95, input ligand: none

For “CUGCUGGAGCGUUGCUUUGGUCGUACAUGAGGAUCACCCAUGUAGGAUAUGGUAAAAUUUGCUUGCUAGAAGGAUAGAGUGGUC [salish99_ExNG3_r04_613] (Eterna round: R96, puzzle: Exclusion NG 3)”, the “apparent KD of MS2 coat protein” value (input ligand: FMN 200 uM) was 117 nM, the “apparent KD of MS2 coat protein” value [1] was 63.5 nM and the “apparent KD of MS2 coat protein” value (input ligand: none) was 64.6 nM.
For “CUGCUGGAGCUUUGCUUUGGUCGUACAUGAGGAUCACCCAUGUAGGAUAUGGUAAGAUUUGCUUGCUAGAAGGAUAGAGUGGUC [salish99_ExNG3_r04_611] (Eterna round: R96, puzzle: Exclusion NG 3)”, the “apparent KD of MS2 coat protein” value (input ligand: FMN 200 uM) was 80.9 nM, the “apparent KD of MS2 coat protein” value [1] was 78.2 nM and the “apparent KD of MS2 coat protein” value (input ligand: none) was 49.7 nM.
With “CUGCUGGAGCUUUGCUUUGGUCGUACAUGAGGAUCACCCAUGUAGGAUAUGGUAGGCUUUGCUUACUAGAAGGAUAGAGUGGUC [salish99_ExNG3_r04_608] (Eterna round: R96, puzzle: Exclusion NG 3)” the “apparent KD of MS2 coat protein” value (input ligand: FMN 200 uM) was 160 nM, the “apparent KD of MS2 coat protein” value [1] was 76.4 nM and the “apparent KD of MS2 coat protein” value (input ligand: none) was 86.4 nM.
For “CUGGCUUAGAGAGGAUAUGACAUUCAAGCCUACCCUGGCCACGGGCCACAUGAGGAUCACCCAUGUCAGAAGGCUCAGGCCAGA [Enorri] (Eterna round: R96, puzzle: Exclusion NG 2)”, the “apparent KD of MS2 coat protein” value (input ligand: FMN 200 uM) was 61.7 nM, the “apparent KD of MS2 coat protein” value [1] was 25.5 nM and the “apparent KD of MS2 coat protein” value (input ligand: none) was 32.8 nM.
In the case of “CUGGGCGGAGGAUAUACAGGUUUAAUAUAAAUUAAAUUGGGACAUGAGGAUCACCCAUGUAGAAGGUUGUUUAG [-13.6, -11.8 kcal, 32% A] (Eterna round: R97, puzzle: Exclusion 2)”, the “apparent KD of MS2 coat protein” value (input ligand: FMN 200 uM) is reported as 23.4 nM and the “apparent KD of MS2 coat protein” value (input ligand: none) is reported as 22.1 nM.
In the case of “CUGGUCCGAGGAUAUAUGAUGUGAAACAUGAGGAUCACCCAUGUAAUAUUAUGGAAGUAAAUAGAAGGCGGACUAG [Mat - Exclusion 5 - JL mod - D34] (puzzle: Exclusion 5)”, the “apparent KD of MS2 coat protein” value [2] is reported as 28.6 nM, the “apparent KD of MS2 coat protein” value [3] is reported as 49.5 nM and the “apparent KD of MS2 coat protein” value [4] is reported as 37 nM.
“CUGGUCCGAGGAUAUAUUAAGUGAAACAUGAGGAUCACCCAUGUUAUUUAAUGGAUGUAAAUAGAAGGCGGACUAG [JL-ex5-3.12] (puzzle: Exclusion 5)” was tested, and the “apparent KD of MS2 coat protein” value [2] was 29.9 nM, the “apparent KD of MS2 coat protein” value [3] was 37 nM and the “apparent KD of MS2 coat protein” value [4] was 42.8 nM.
For “CUGGUCCGAGGAUAUAUUAAGUGAAACAUGAGGAUCACCCAUGUUAUUUGAUGGAAGAAAAUAGAAGGCGGACUAG [Mat - Exclusion 5 - JL mod - D59] (puzzle: Exclusion 5)”, the “apparent KD of MS2 coat protein” value [2] was 29.9 nM, the “apparent KD of MS2 coat protein” value [3] was 86.9 nM and the “apparent KD of MS2 coat protein” value [4] was 62.5 nM.
For “CUGUACUGAGGAUAUACAUGAGGAUCACCCAUGUGAUGUAGUGCACGCGUACGUGUACGUAGAAGGCAGUACAG [Mat - Exclusion 3 - Eli Mod - D41] (Eterna round: R97, puzzle: Exclusion 3)”, the “apparent KD of MS2 coat protein” value (input ligand: FMN 200 uM) was 54 nM and the “apparent KD of MS2 coat protein” value (input ligand: none) was 20.3 nM.
In the case of “CUGUACUGAGGAUAUACAUGAGGAUCACCCAUGUGAUUCAGUGCACGCGUACGUGUACGUAGAAGGCAGUACAG [Mat - Exclusion 3 - Eli Mod - D37] (Eterna round: R97, puzzle: Exclusion 3)”, the “apparent KD of MS2 coat protein” value (input ligand: FMN 200 uM) is reported as 750 nM and the “apparent KD of MS2 coat protein” value (input ligand: none) is reported as 42.5 nM.
For “CUGUACUGAGGAUAUACAUGAGGAUCACCCAUGUGCUUCAGCUAGGAAACUAGCAAAGGUAGAAGGCAGUACAG [Mat - Exclusion 3 - Eli Mod - D58] (Eterna round: R97, puzzle: Exclusion 3)”, the “apparent KD of MS2 coat protein” value (input ligand: FMN 200 uM) was 109 nM and the “apparent KD of MS2 coat protein” value (input ligand: none) was 14.5 nM.
In the case of “CUGUGCACGCUGCGAUCCUACAUGAGGAUCACCCAUGUGGUCUGGUGGCGUGGGUCACCGGACUUGGCUCGUCUUGG [salish99_S_TOV1_R5_078] (Eterna round: R97, puzzle: Sensor, turn-off variant 1)”, the “apparent KD of MS2 coat protein” value (input ligand: FMN 200 uM) is reported as 129 nM and the “apparent KD of MS2 coat protein” value (input ligand: none) is reported as 150 nM.
For “CUGUGCACGCUGCGAUCCUACAUGAGGAUCACCCAUGUGGUCUGGUGGCGUGGGUCACCGGACUUGGCUCGUCUUGU [salish99_S_TOV1_R5_079] (Eterna round: R97, puzzle: Sensor, turn-off variant 1)”, the “apparent KD of MS2 coat protein” value (input ligand: FMN 200 uM) was 79 nM and the “apparent KD of MS2 coat protein” value (input ligand: none) was 90.7 nM.
For “CUGUGCACGCUGCGGUCCUACAUGAGGAUCACCCAUGUGGUCUGGUGGCGUGGGUCACCGGACUUGGCUCGUCUUGU [salish99_S_TOV1_R5_064] (Eterna round: R97, puzzle: Sensor, turn-off variant 1)”, the “apparent KD of MS2 coat protein” value (input ligand: FMN 200 uM) was 35.7 nM and the “apparent KD of MS2 coat protein” value (input ligand: none) was 42.3 nM.
“CUGUGUAGACAGGAUAUGCUGUACAAAAGUACAGCAGAAGGGUCUACAUGAGGAUCACCCAUGUAUACUUCAUG [)mei Ex6 B24] (Eterna round: R97, puzzle: Exclusion 6)” was tested, and the “apparent KD of MS2 coat protein” value (input ligand: FMN 200 uM) was 391 nM and the “apparent KD of MS2 coat protein” value (input ligand: none) was 920 nM.
With “CUGUGUAGACAGGAUAUGCUGUACAAAAGUACAGCAGAAGGGUCUACAUGAGGAUCACCCAUGUGUACCUCAUG [)mei Ex6 B26] (Eterna round: R97, puzzle: Exclusion 6)” the “apparent KD of MS2 coat protein” value (input ligand: FMN 200 uM) was 21.2 nM and the “apparent KD of MS2 coat protein” value (input ligand: none) was 106 nM.
In the case of “CUGUUUUUCGCAGGAUAUGCUCCUCCAUUAUUUGCAGAAGGGCGUUAAACAUGAGGAUCACCCAUGUAUGGUAAUGACUAUUUC [JR_ExcNG1_Sub065] (Eterna round: R96, puzzle: Exclusion NG 1)”, the “apparent KD of MS2 coat protein” value (input ligand: FMN 200 uM) is reported as 125 nM, the “apparent KD of MS2 coat protein” value [1] is reported as 43.6 nM and the “apparent KD of MS2 coat protein” value (input ligand: none) is reported as 40.7 nM.
In the case of “CUGUUUUUCGCAGGAUAUGCUUCUCCUUUAUUAGCAGAAGGGCGUUAAACAUGAGGAUCACCCAUGUAUGGUAAUGAUAUUUUC [JR_ExcNG1_Sub060] (Eterna round: R96, puzzle: Exclusion NG 1)”, the “apparent KD of MS2 coat protein” value (input ligand: FMN 200 uM) is reported as 145 nM, the “apparent KD of MS2 coat protein” value [1] is reported as 52.3 nM and the “apparent KD of MS2 coat protein” value (input ligand: none) is reported as 55.8 nM.
In the case of “CUUAGACAUGAGGAUCACCCAUGUGAGGAUAUGAAAUUAAUUAAUUAUUAAUUAUUAAUCAGAAGGCACAUAUG [Mat - Mod of Hyphema D38] (puzzle: Exclusion 1)”, the “apparent KD of MS2 coat protein” value [2] is reported as 79.8 nM, the “apparent KD of MS2 coat protein” value [3] is reported as 43.6 nM and the “apparent KD of MS2 coat protein” value [4] is reported as 41.3 nM.
With “CUUAGACAUGAGGAUCACCCAUGUGAGGAUAUGAUGCGAAUAAGUAAGUAAUAAAGCAUCAGAAGGCACAUAUG [Mat - Mod of Hyphema D28] (puzzle: Exclusion 1)” the “apparent KD of MS2 coat protein” value [2] was 235 nM, the “apparent KD of MS2 coat protein” value [3] was 186 nM and the “apparent KD of MS2 coat protein” value [4] was 222 nM.
For “CUUAGACAUGAGGAUCACCCAUGUGAGGAUAUGAUGCGAUCGUCGAAAGACGAUAGCAUCAGAAGGUACAAAUG [Fiskers Ex 1 - 21] (puzzle: Exclusion 1)”, the “apparent KD of MS2 coat protein” value [3] was 90.5 nM.
For “CUUAUGUGAGGAUAUCAGUAGUGAUACGAUAGUAUUACUGCUGAGAAGGUACAUGAGGAUCACCCAUGUUCCUC [Exclusion 4 - Mod Omei Ex4 344 mod 4 v.1] (puzzle: Exclusion 4)”, the “apparent KD of MS2 coat protein” value [3] was 16.2 nM.
In the case of “CUUAUGUGAGGAUAUGCCUGGCCGUGAGGCCAAAUUUAUAAGCAGAAGGCACAUGAGGAUCACCCAUGUGCGGG [jl-ex4-4.69 ViennaUCT mod] (Eterna round: R97, puzzle: Exclusion 4)”, the “apparent KD of MS2 coat protein” value (input ligand: FMN 200 uM) is reported as 115 nM and the “apparent KD of MS2 coat protein” value (input ligand: none) is reported as 317 nM.
With “CUUCACCCACCAGAGCUCACCCACAUACCAGCUCUGGUGACAUGAGGAUCACCCAUGUUUUUUGCCCGUCUUAUCUU [Intibima] (Eterna round: R96, puzzle: Sensor v3, turn-off variant 2)” the “apparent KD of MS2 coat protein” value (input ligand: FMN 200 uM) was 65 nM, the “apparent KD of MS2 coat protein” value [1] was 218 nM and the “apparent KD of MS2 coat protein” value (input ligand: none) was 79.1 nM.
